{"source": "paper PMC9825169", "about": "“The Caulobacter crescentus DciA promotes chromosome replication through topological loading of the DnaB replicative helicase at replication forks” (Nucleic Acids Research, 2022)", "molecules": {"B1": {"name": "DnaB with a C-terminal hexahistidine tag (DnaB-His; 56 kDa) (enzyme, Caulobacter crescentus, UniProt A0A0H3C7A8 1-507, looked up)", "chain": "MPMSLVPALDLVLPGLPEPTINVAPHNMEAEQALLGVLLYDNAAYERLSDNLQARCFYEPFHQRLFQAIETHVRKGQLAEPILLADEFKKDPAFEELGGLRYLADLVDRAPPAANVGDYARVIFDLSLRRELIRIGGDIATAAQGGNDEKRNARDQIEAAEQSLYSLAESGAASSGFVSFGDALRGAVEMTAEAYSRDGGMSGVSTDLMDLDQKIGGLHPSDLIILAGRPSMGKTALATNIAFNIAKKYAYEIQPDGTKKTVQGGVVAFYSLEMSAEQLALRMLADASGVSGDRLRKGEIDASEFGRVRDAAMELQNAPLYIDATGGISIAKLTARARRLKRQVGLDLIVVDYLQLVTGSDLGANANRVQEVSQITMGLKALAKELSVPVIALSQLSRQVEQRDDKRPQLSDLRESGSIEQDADMVWFVYREAYYVGRAEPREGTPEHLTWQEEMDRLQGLAEVIIAKQRHGPIGTVRLSFNSDTTRFGNLARDHYFAQARNIPSDE", "notes": "Replicative DNA helicase DnaB (CCNA_01737) of Caulobacter crescentus; Hexamer by size exclusion chromatography; Construction details are in the Supplemental Materials; also called C. crescentus DnaB; CCNA_01737; source: E. coli, purified (procedure in the Supplemental Material); not shown: His6, C-terminal, kept"}, "B2": {"name": "DciA with an N-terminal hexahistidine tag (His-DciA; 21 kDa) (natural protein, Caulobacter crescentus, UniProt A0A0H3C5R2 1-179, looked up)", "chain": "MRRPLPTPEEAIAILRSKRTKPQRRPPPPAGKNLAPLLKDLEDRFGKGPAALQARWKEIVGDTLARRTEPVRIIKGRNGEGGALELRVDGPVASLIQHQAPQITARLDMLLGKGVVTRLRIVQGPVKAPAAAPSTRLRRKPPLDAALEKQLADSLAEQPDGALKQALLKLGRGVLSSER", "notes": "DciA (CCNA_00380) of Caulobacter crescentus; This is surmised from the primer; construction details are in the Supplemental Materials; source: E. coli, purified (procedure in the Supplemental Material); not shown: His6, N-terminal, kept"}}, "key": {"DnaB-His": {"biological_target": "T1, DnaB-His (Caulobacter vibrioides, UniProt A0A0H3C7A8)", "T1 construct": "gene CCNA_01737; full-length, C-terminal His6 tag kept, expressed in E. coli Rosetta 2(DE3), 56 kDa monomer, hexamer (330 kDa) from size exclusion chromatography", "assay": "ATPase assay, [alpha-32P]ATP, TLC on PEI cellulose, Michaelis-Menten fit", "type": "biochemical", "conditions": "pH 7.5, 10 mM magnesium acetate, 30 C, 5-160 uM ATP, 8.3 nM hexamer, no DciA; labelled compound"}, "[1]": {"biological_target": "the molecule itself", "assay": "SEC; Superdex 200 Increase 10/300 GL; 25 mM Tris-HCl pH 7.5, 300 mM sodium chloride, 20% glycerol, 0.1 mM ATP, 5 mM magnesium chloride; 0.2 ml/min; DnaB-His 10 nmol, His-DciA 25 nmol, alone or mixed; fractions on SDS-PAGE with Coomassie staining"}, "[2]": {"biological_target": "B1", "assay": "SEC; Superdex 200 Increase 10/300 GL; 25 mM Tris-HCl pH 7.5, 300 mM sodium chloride, 20% glycerol, 0.1 mM ATP, 5 mM magnesium chloride; 0.2 ml/min; DnaB-His 10 nmol, His-DciA 25 nmol, alone or mixed; fractions on SDS-PAGE with Coomassie staining", "conditions": "both partners purified"}}}
{"molecule": "Nc1ncnc2c1ncn2[C@@H]1O[C@H](COP(=O)(O)OP(=O)(O)OP(=O)(O)O)[C@@H](O)[C@H]1O", "note": "[ATP]", "values": [{"measurement": "ATPase assay, [alpha-32P]ATP, TLC on PEI cellulose, Michaelis-Menten fit", "setting": "DnaB-His", "value": "ATP hydrolysis was readily observed at various concentrations of wild-type DnaB-His"}]}
{"molecule": "B1", "values": [{"measurement": "stoichiometry N", "setting": "[1]", "value": 6}]}
{"molecule": "B2", "values": [{"measurement": "stoichiometry N", "setting": "[2]", "value": 1.9, "unit": "DnaB-His per His-DciA"}]}
